These results are taken from US20080206239A1 (ANTITOPE, published 2008).

For the experiment, the target named is human TNFα (human, UniProt P01375 77-233). The experiment is described as follows: cell-based or functional assay.
Chain of human TNFα (P01375 77-233 limits assumed): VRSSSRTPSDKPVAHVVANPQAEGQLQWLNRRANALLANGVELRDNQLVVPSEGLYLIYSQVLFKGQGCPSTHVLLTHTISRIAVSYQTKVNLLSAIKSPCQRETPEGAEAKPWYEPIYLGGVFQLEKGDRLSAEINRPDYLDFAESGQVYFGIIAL

B1: antibody of heavy chain SEQ. ID. No. 3 and light chain SEQ. ID. No. 2 (antibody, human IgG1, V domains shown)
VH: EVQLVESGGGLVQPGGSLKLSCVASGFIFSNHWMNWVRQAPGKGLEWVAEIRSKSINSATHYAESVKGRFTISRDDSKSIVYLQMTDLRTEDTGVYYCSRNYYGSTYDYWGQGTTVTVSS
VL: DILLTQSPAILSVSPGERVSFSCRASQFVGSSIHWYQQRTNGSPRLLIKYASESMSGIPSRFSGSGSGTDFTLSINTVESEDIADYYCQQSHSWPFTFGSGTNLEVK
As to B1, the “Ratio of Activities compared to Chimeric Antibody (fold difference, WEHI-164 protection assay at 25 ng/ml)” value was 1.38 fold.

B2: antibody of heavy chain SEQ. ID. No. 5 and light chain SEQ. ID. No. 2 (antibody, human IgG1, V domains shown)
VH: EVQLVESGGGLVQPGGSLKLSCVASGFIFSNHWMNWVRQAPGKGLEWVAEIRSKSINSATHYAESVKGRFTISRDDSKSIVYLQMNDLKTEDTGVYYCSRNYYGSTYDYWGQGTTVTVSS
VL: DILLTQSPAILSVSPGERVSFSCRASQFVGSSIHWYQQRTNGSPRLLIKYASESMSGIPSRFSGSGSGTDFTLSINTVESEDIADYYCQQSHSWPFTFGSGTNLEVK
For the molecule B2, the “Ratio of Activities compared to Chimeric Antibody (fold difference, WEHI-164 protection assay at 25 ng/ml)” value worked out at 1.24 fold.

B3: antibody of heavy chain SEQ. ID. No. 7 and light chain SEQ. ID. No. 2 (antibody, human IgG1, V domains shown)
VH: EVQLVESGGGLVQPGGSLKLSCAASGFIFSNHWMNWVRQAPGKGLEWVAEIRSKSINSATHYAESVKGRFTISRDDSKSIVYLQMNSLKTEDTGVYYCSRNYYGSTYDYWGQGTTVTVSS
VL: DILLTQSPAILSVSPGERVSFSCRASQFVGSSIHWYQQRTNGSPRLLIKYASESMSGIPSRFSGSGSGTDFTLSINTVESEDIADYYCQQSHSWPFTFGSGTNLEVK
With B3, the “Ratio of Activities compared to Chimeric Antibody (fold difference, WEHI-164 protection assay at 25 ng/ml)” value came out at 1.02 fold.

B4: antibody of heavy chain SEQ. ID. No. 6 and light chain SEQ. ID. No. 2 (antibody, human IgG1, V domains shown)
VH: EVQLVESGGGLVQPGGSLKLSCVASGFIFSNHWMNWVRQAPGKGLEWVAEIRSKSINSATHYAESVKGRFTISRDDSKSIVYLQMNSLKTEDTGVYYCSRNYYGSTYDYWGQGTTVTVSS
VL: DILLTQSPAILSVSPGERVSFSCRASQFVGSSIHWYQQRTNGSPRLLIKYASESMSGIPSRFSGSGSGTDFTLSINTVESEDIADYYCQQSHSWPFTFGSGTNLEVK
With B4, the “Ratio of Activities compared to Chimeric Antibody (fold difference, WEHI-164 protection assay at 25 ng/ml)” value is 1.2 fold.
